Measured values as given in patent publication US11795460B2, “Compositions and methods for TTR gene editing and treating ATTR amyloidosis” (Intellia Therapeutics, Inc., priority 2017, dated 2023).
Strand notation (5' to 3'): a small letter for the sugar, then the base; units joined by * are phosphorothioate-linked, units joined directly phosphodiester-linked; [ ] holds rarer units or linkages, { } end groups; capitals alone tell only the bases. m = 2'-O-methyl; r = 2'-OH (RNA)

B1: G000481: TTR sgRNA modified sequence, Human, SEQ ID No. 88; guide sequence of CR003345 (nucleic acid)
guide: mU*mC*mU*rArGrArArCrUrUrUrGrArCrCrArUrCrArGrGrUrUrUrUrArGrAmGmCmUmAmGmAmAmAmUmAmGmCrArArGrUrUrArArArArUrArArGrGrCrUrArGrUrCrCrGrUrUrArUrCrAmAmCmUmUmGmAmAmAmAmAmGmUmGmGmCmAmCmCmGmAmGmUmCmGmGmUmGmCmU*mU*mU*mU
B2: G000490: TTR sgRNA modified sequence, Human, SEQ ID No. 97; guide sequence of CR003366 (nucleic acid)
guide: mA*mA*mA*rUrArGrArCrArCrCrArArArUrCrUrUrArCrGrUrUrUrUrArGrAmGmCmUmAmGmAmAmAmUmAmGmCrArArGrUrUrArArArArUrArArGrGrCrUrArGrUrCrCrGrUrUrArUrCrAmAmCmUmUmGmAmAmAmAmAmGmUmGmGmCmAmCmCmGmAmGmUmCmGmGmUmGmCmU*mU*mU*mU
B3: G000493: TTR sgRNA modified sequence, Human, SEQ ID No. 100; guide sequence of CR003368 (nucleic acid)
guide: mA*mA*mG*rUrGrCrCrUrUrCrCrArGrUrArArGrArUrUrGrUrUrUrUrArGrAmGmCmUmAmGmAmAmAmUmAmGmCrArArGrUrUrArArArArUrArArGrGrCrUrArGrUrCrCrGrUrUrArUrCrAmAmCmUmUmGmAmAmAmAmAmGmUmGmGmCmAmCmCmGmAmGmUmCmGmGmUmGmCmU*mU*mU*mU
B4: G000500: TTR sgRNA modified sequence, Human, SEQ ID No. 107; guide sequence of CR003337 (nucleic acid)
guide: mC*mC*mA*rGrUrCrCrArGrCrArArGrGrCrArGrArGrGrGrUrUrUrUrArGrAmGmCmUmAmGmAmAmAmUmAmGmCrArArGrUrUrArArArArUrArArGrGrCrUrArGrUrCrCrGrUrUrArUrCrAmAmCmUmUmGmAmAmAmAmAmGmUmGmGmCmAmCmCmGmAmGmUmCmGmGmUmGmCmU*mU*mU*mU
B5: G000486: TTR sgRNA modified sequence, Human, SEQ ID No. 93; guide sequence of CR003339 (nucleic acid)
guide: mA*mC*mA*rCrArArArUrArCrCrArGrUrCrCrArGrCrArGrUrUrUrUrArGrAmGmCmUmAmGmAmAmAmUmAmGmCrArArGrUrUrArArArArUrArArGrGrCrUrArGrUrCrCrGrUrUrArUrCrAmAmCmUmUmGmAmAmAmAmAmGmUmGmGmCmAmCmCmGmAmGmUmCmGmGmUmGmCmU*mU*mU*mU
B6: G000489: TTR sgRNA modified sequence, Human, SEQ ID No. 96; guide sequence of CR003344 (nucleic acid)
guide: mU*mU*mU*rGrArCrCrArUrCrArGrArGrGrArCrArCrUrGrUrUrUrUrArGrAmGmCmUmAmGmAmAmAmUmAmGmCrArArGrUrUrArArArArUrArArGrGrCrUrArGrUrCrCrGrUrUrArUrCrAmAmCmUmUmGmAmAmAmAmAmGmUmGmGmCmAmCmCmGmAmGmUmCmGmGmUmGmCmU*mU*mU*mU
B7: G000480: TTR sgRNA modified sequence, Human, SEQ ID No. 87; guide sequence of CR003353 (nucleic acid)
guide: mA*mA*mA*rGrGrCrUrGrCrUrGrArUrGrArCrArCrCrUrGrUrUrUrUrArGrAmGmCmUmAmGmAmAmAmUmAmGmCrArArGrUrUrArArArArUrArArGrGrCrUrArGrUrCrCrGrUrUrArUrCrAmAmCmUmUmGmAmAmAmAmAmGmUmGmGmCmAmCmCmGmAmGmUmCmGmGmUmGmCmU*mU*mU*mU
B8: G000488: TTR sgRNA modified sequence, Human, SEQ ID No. 95; guide sequence of CR003346 (nucleic acid)
guide: mA*mA*mA*rGrUrUrCrUrArGrArUrGrCrUrGrUrCrCrGrGrUrUrUrUrArGrAmGmCmUmAmGmAmAmAmUmAmGmCrArArGrUrUrArArArArUrArArGrGrCrUrArGrUrCrCrGrUrUrArUrCrAmAmCmUmUmGmAmAmAmAmAmGmUmGmGmCmAmCmCmGmAmGmUmCmGmGmUmGmCmU*mU*mU*mU
B9: G000502: TTR Cyno specific sgRNA modified sequence, SEQ ID No. 114; guide sequence of CR000689; cross homologous between mouse and cyno (nucleic acid)
guide: mA*mC*mA*rCrArArArUrArCrCrArGrUrCrCrArGrCrGrGrUrUrUrUrArGrAmGmCmUmAmGmAmAmAmUmAmGmCrArArGrUrUrArArArArUrArArGrGrCrUrArGrUrCrCrGrUrUrArUrCrAmAmCmUmUmGmAmAmAmAmAmGmUmGmGmCmAmCmCmGmAmGmUmCmGmGmUmGmCmU*mU*mU*mU
B10: G000482: TTR sgRNA modified sequence, Human, SEQ ID No. 89; guide sequence of CR003365 (nucleic acid)
guide: mU*mG*mU*rArGrArArGrGrGrArUrArUrArCrArArArGrGrUrUrUrUrArGrAmGmCmUmAmGmAmAmAmUmAmGmCrArArGrUrUrArArArArUrArArGrGrCrUrArGrUrCrCrGrUrUrArUrCrAmAmCmUmUmGmAmAmAmAmAmGmUmGmGmCmAmCmCmGmAmGmUmCmGmGmUmGmCmU*mU*mU*mU

Assays:
TTR = TTR editing in primary cyno hepatocytes electroporated with Spy Cas9 protein and sgRNAs (Tables 14, 15); type: cell-based, cynomolgus monkey
Method in brief: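 Spy Cas9 RNPs with boiled sgRNAs electroporated (Lonza P3 buffer, program EX-147) into primary cynomolgus hepatocytes; harvest at 24, 48 or 72 h. TTR target site PCR-amplified and sequenced on Illumina MiSeq, reads aligned to mf5; percent editing is reads with indels or substitutions over total reads.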

TTR mRNA = TTR mRNA knockdown in primary human hepatocytes by quantitative PCR (Tables 34, 35); type: cell-based; details: TTR mRNA in PHH, 96 hours after treatment, vs untreated control
Method: In one experiment, PHH were cultured and treated with LNPs comprising Cas9 mRNA (SEQ ID NO:1) and a gRNA of interest (See FIG. 29, Table 34), as described in Example 4. The LNPs were prepared using the cross-flow procedure described above and purified and concentrated using PD-10 columns and Amicon centrifugal filter units, respectively. The LNPs were formulated with an N:P ratio of 6.0 and contained Lipid A, Cholesterol, DSPC, and PEG2k-DMG in a 50:38:9:2 molar ratio, respectively. The LNPs comprised a gRNA:mRNA ratio of 1:2, and the cells were treated at a dose of 300 ng (with respect to the amount of mRNA cargo delivered).
(§1) Ninety-six (96) hours following LNP treatment (with biological triplicates for each condition), mRNA was purified from PHH cells using the Dynabeads mRNA DIRECT Kit (ThermoFisher Scientific) according to the manufacturer's protocol. Reverse Transcription (RT) was performed with Maxima reverse transcriptase (ThermoFisher Scientific) and a poly-dT primer. The resulting cDNA was purified with Ampure XP Beads (Agencourt). For Quantitative PCR, 2% of the purified cDNA was amplified with Taqman Fast Advanced Mastermix and 3 Taqman probe sets, TTR (Assay ID: Hs00174914_m1), GAPDH (Assay ID: Hs02786624_g1), and PPIB (Assay ID: Hs00168719_m1). The assays were run on the QuantStudio 7 Flex Real Time PCR System according to the manufacturer's instructions (Life Technologies). Relative expression of TTR mRNA was calculated by normalizing to the endogenous controls (GAPDH and PPIB) individually, and then averaged.
In a separate experiment, TTR mRNA knockdown was evaluated following treatment with LNPs comprising G000480, G000486, and G000502. The LNPs were formulated and PHH were cultured and treated with the LNPs, each as described in the experiment above in this Example with the exception that the cells were treated at a dose of 100 ng (with respect to the amount of mRNA cargo delivered).
as §1, with “(single treatment” for “(with biological triplicates”, “the High Capacity cDNA Reverse Transcription Kit” for “Maxima reverse transcriptase”, “according to the manufacturer's instructions.” for “and a poly-dT primer. The resulting cDNA was purified with Ampure XP Beads (Agencourt).”, “the” for “the purified”

[1] = Table 14, primary cyno hepatocytes electroporated with Spy Cas9 protein (RNP) and sgRNAs
[2] = LNP dose 300 ng mRNA cargo, gRNA:mRNA 1:2, biological triplicates
[3] = LNP dose 100 ng mRNA cargo, separate experiment
[4] = Table 15, primary cyno hepatocytes electroporated with Spy Cas9 protein (RNP) and cyno specific sgRNAs

Molecule | Avg % Deletion (TTR; [1]) [%] | Avg % Edit (TTR; [1]) [%] | Avg % Insert (TTR; [1]) [%] | Avg % Knockdown (TTR mRNA; [2]) [%] | Avg % Knockdown (TTR mRNA; [3]) [%] | Avg % Deletion (TTR; [4]) [%] | Avg % Edit (TTR; [4]) [%] | Avg % Insert (TTR; [4]) [%]
B1 | 35.50 | 69.13 | 33.73 | 91.39 | – | – | – | –
B2 | 7.27 | 61.67 | 54.47 | 78.34 | – | – | – | –
B3 | 2.10 | 50.13 | 48.07 | 87.53 | – | – | – | –
B4 | 2.63 | 45.20 | 42.60 | 92.90 | – | – | – | –
B5 | 68.07 | 79.90 | 11.90 | – | 97.36 | – | – | –
B6 | 14.17 | 67.53 | 53.53 | 91.85 | – | – | – | –
B7 | 0.37 | 10.20 | 9.83 | 95.19 | 95.61 | – | – | –
B8 | 4.27 | 9.63 | 5.37 | 92.77 | – | – | – | –
B9 | – | – | – | – | 90.94 | 81.27 | 95.10 | 13.97
B10 | 20.03 | 75.17 | 55.23 | 82.31 | – | – | – | –
